Positions of bridges follow the written chain, without caps; N, C: chain ends. No end group written: not given here.
T1: hu-IL-2Rβ subunit (human, UniProt P14784 27-240, limits assumed)
T1 construct: also called human interleukin-2 receptor subunit β; CD122
T1 sequence (looked up): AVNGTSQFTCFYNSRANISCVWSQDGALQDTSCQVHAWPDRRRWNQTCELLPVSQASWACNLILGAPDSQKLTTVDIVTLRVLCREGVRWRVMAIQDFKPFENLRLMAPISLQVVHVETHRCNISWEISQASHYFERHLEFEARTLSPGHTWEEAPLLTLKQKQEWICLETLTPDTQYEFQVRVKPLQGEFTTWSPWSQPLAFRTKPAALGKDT


These binders were tested against T1, hu-IL-2Rβ subunit (assay: phage ELISA competition assay).

IC50, < 100 µM:
FGGKMDWYPCWIANLGELCDLK [SEQ ID NO 457]
VPRANAWHPCWMAQLGELCDLE [SEQ ID NO 106]
MGDSSSWFPCWMAQLGELCDME [SEQ ID NO 459]
AQVRREWYPCWMAQLGELCDLT (disulfide 10-19 (inferred)) [SEQ ID NO 109]
AGFRGRWWPCEYAQVGELCDLE [SEQ ID NO 484]
FHPCWRALLGELCDLETALGPS [SEQ ID NO 443]
WWPCEIAQIGELCDLEWVRHAE [SEQ ID NO 476]
TGEWWPCWVAEVGELCDLERGP (not fully specified (bridges); cysteine pairing not given here) [SEQ ID NO 441]
WWPCWIAQVGELCDLEEESRES [SEQ ID NO 451]
WRILWMQQCWRSHVVNQCAL (not fully specified (bridges); cysteine pairing not given here) [SEQ ID NO 439]
TNGVLDWWPCWMAQVGELCDLD (not fully specified (bridges); cysteine pairing not given here) [SEQ ID NO 471]
SWHAETWYPCWLAQVGELCDLD [SEQ ID NO 480]
SWRFLWQDCGRAHVGELCDL [SEQ ID NO 446]
WLNRHLFNPCWMARLGELCDLE [SEQ ID NO 108]
WYPCWLAKVGELCDQE [SEQ ID NO 491]
WFPCWMAKVGDLCDVDEHQDPS [SEQ ID NO 458]
WGGRYWCWMAKLGDLCDLEDEW [SEQ ID NO 436]
RWDYWPCYIAQVGELCDLEVYE [SEQ ID NO 463]
WWPCWVAKLGELCDLEGDASRV [SEQ ID NO 448]
QNASKGWYPCWIAHVGELCDWD [SEQ ID NO 465]
WWPCEWARIGELCDLE [SEQ ID NO 486]
RAWWWPCELAQVGELCDLEPSS [SEQ ID NO 490]
ETEQMSWYPCWVAQLWELCDLD (disulfide 10-19 (inferred)) [SEQ ID NO 110]
LQIRKLWACRIDLVGPFCLL [SEQ ID NO 444]
WWPCWIAQVGELCDLDGPGRPT (disulfide 4-13 (inferred)) [SEQ ID NO 437]
RLVYDCLFAQVGDLCEVIS [SEQ ID NO 438]
MRTTFWYDCYIAQVGELCDF (not fully specified (bridges); cysteine pairing not given here) [SEQ ID NO 479]
MFRYYPCWIASIGELCDLEWGV [SEQ ID NO 460]
WTGWSAFYPCSIANLGELCDLD [SEQ ID NO 469]
SLAHRSWYPCWLAQVGELCDLD [SEQ ID NO 464]
HRWYPCWLAHLGELCDLDPMS [SEQ ID NO 466]
RDWWLPCEFALIGELCDLERSW [SEQ ID NO 478]
GRQQKGWYPCWLAQLGELCDME [SEQ ID NO 107]
EISNWFLDCMFADVGDLCDL [SEQ ID NO 455]
WWPCYLAQIGELCDLV [SEQ ID NO 493]
KWAWNPCYIARLGELCDLVEPE [SEQ ID NO 452]
ARTQGWYDCLFAQVGELCDL [SEQ ID NO 442]
NRWWHPCWMARVGELCDLEPDA [SEQ ID NO 447]
AEYSGRYDCYIAKVGELCDI [SEQ ID NO 445]
EPRWYPCWMAQMGELCDMEMSD [SEQ ID NO 435]
WWPCWIADLGELCDLEGPPRGR [SEQ ID NO 453]
EWFHDCFLAKVGDLCDLFLW [SEQ ID NO 481]
KWFHDCFLAKVGDLCDLFLW [SEQ ID NO 533]
KGSSWFPCYFAQVGDLCDLY [SEQ ID NO 487]
ERRWYPCWLASVGELCDLDMGD [SEQ ID NO 461]
DKAGPNFYPCWLAHVGELCDQA [SEQ ID NO 483]
WYPCWMALLGELCDQE [SEQ ID NO 81]
EGHWYPCWIAQLGELCDLDW [SEQ ID NO 468]
WFPCWLAKVGELCDRDDLAGPS [SEQ ID NO 485]
NDHTAWWPCYFAQVGDLCDLV [SEQ ID NO 475]
WYPCEFAQLGELCDLLPFPYPA [SEQ ID NO 449]
SGKTQMWNPCYVAKVGELCDLV [SEQ ID NO 482]
SYMHDCFMAQVGDLCDRFIS [SEQ ID NO 450]
CYMHDCFMAQVGDLCDRFIS [SEQ ID NO 497]
WEKLQNWYPCWIAQMGELCDLE (not fully specified (bridges); cysteine pairing not given here) [SEQ ID NO 470]
WYPCWLAQVGELCDRE [SEQ ID NO 488]
PTLITWYDCLFAEVGELCDM [SEQ ID NO 454]
WYPCWIAQVGELCDLDEVSHGR [SEQ ID NO 440]
RGVYFPCWLAKVGDLCDSDEF [SEQ ID NO 489]
AYYPCELAQLGELCDLYNI [SEQ ID NO 473]
AQVWYPCWLAKVGELCDLDQWN [SEQ ID NO 456]
FYPCWIAFVGELCDLE [SEQ ID NO 467]
WWPCDFAQIGELCDLGPRFTGE [SEQ ID NO 477]
RYVPDCLKAQVGDLCDFFAW [SEQ ID NO 492]
